Data on 37 molecules can be found in patent publication US6127119, “Nucleic acid ligands of tissue target” (NeXstar Pharmaceuticals, Inc.).

B1: FC34 (ssRNA)
RNA: GGGAGAUAAGAAUAAACGCUCAAAAGGCCGAACAACGAAGUUUGAUUCAGGUACUCAGCGUUCUUCGACAGGAGGCUCACAACAGGC
modifications: 2'-F pyrimidines
B2: FCN12 (ssRNA)
RNA: GGGAGAUAAGAAUAAACGCUCAAAGAGAGGAACUGCGAUUCAGACCAAAACGGAAAUGGCUGUUUCGACAGGAGGCUCACAACAGGC
modifications: 2'-F pyrimidines
B3: FCN21 (ssRNA)
RNA: GGGAGAUAAGAAUAAACGCUCAAAGUUUGGAUUCGGCAGGUGCUGAGACUUUGAUAGCCACUAUUCGACAGGAGGCUCACAACAGGC
modifications: 2'-F pyrimidines
B4: FCN25 (ssRNA)
RNA: GGGAGAUAAGAAUAAACGCUCAAGAUAUACUAACUUUCUUUGAAAGCCAAAAGUAUUAAUGCGUUCGACAGGAGGCUCACAACAGGC
modifications: 2'-F pyrimidines
B5: FCN54 (ssRNA)
RNA: GGGAGAUAAGAAUAAACGCUCAACUGGGCUCAUCCGGCGAAUGAUGCAAGGAAGAUUUCACAUUUCGACAGGAGGCUCACAACAGGC
modifications: 2'-F pyrimidines
B6: FCN27 (ssRNA)
RNA: GGGAGAUAAGAAUAAACGCUCAAAAAGUCGUGUGCGAGAGGCUCAGAUUUAAUGCGGAGGAUUCGACAGGAGGCUCACAACAGGC
modifications: 2'-F pyrimidines
B7: FCN6 (ssRNA)
RNA: GGGAGAUAAGAAUAAACGCUCAACAACGAUUAUCUUUUCGGCCGUGAAACCCAAACUGACGCCUUCGACAGGAGGCUCACAACAGGC
modifications: 2'-F pyrimidines
B8: FCN13 (ssRNA)
RNA: GGGAGAUAAGAAUAAACGCUCAACGUGAUGACAGCUCGGACGGCUCAUUGCGCGGAGUAGCUAUUCGACAGGAGGCUCACAACAGGC
modifications: 2'-F pyrimidines
B9: FCN22 (ssRNA)
RNA: GGGAGAUAAGAAUAAACGCUCAAGUGAGAAAUGUCGGGGGCGAUGACUUGGACGGUCCACCGUUCGACAGGAGGCUCACAACAGGC
modifications: 2'-F pyrimidines
B10: FCN9 (ssRNA)
RNA: GGGAGAUAAGAAUAAACGCUCAACGUUGAAAUCGCUCCUCAGUGUGAGUUGAAUCAGCUGACCUUCGACAGGAGGCUCACAACAGGC
modifications: 2'-F pyrimidines
B11: FCN56 (ssRNA)
RNA: GGGAGAUAAGAAUAAACGCUCAACGGCUCGAUGCUAGCUGGGACGGCUCAUUGAGACUGGUUGUUCGACAGGAGGCUCACAACAGGC
modifications: 2'-F pyrimidines
B12: FCN18 (ssRNA)
RNA: GGGAGAUAAGAAUAAACGCUCAAAUGAACGACCGCGGGCAGUCGCGUUCAAAUGAGUGGUUUUUUCGACAGGAGGCUCACAACAGGC
modifications: 2'-F pyrimidines
B13: FCN52 (ssRNA)
RNA: GGGAGAUAAGAAUAAACGCUCAAAGCCGAGCUAAUCCCGAAAGUGACCCGGAACGACGCGGCAUUCGACAGGAGGCUCACAACAGGC
modifications: 2'-F pyrimidines
B14: FCN49 (ssRNA)
RNA: GGGAGAUAAGAAUAAACGCUCAAGAAUGGAGCCAAGAAAGACAGCGAUGUCUCGGACGAUGAGUUCGACAGGAGGCUCACAACAGGC
modifications: 2'-F pyrimidines
B15: FCN58 (ssRNA)
RNA: B14 RNA with A25G
modifications: 2'-F pyrimidines
B16: FCN69 (ssRNA)
RNA: GGGAGAUAAGAAUAAACGCUCAAGAUUGACACGCACUCCAAUGGCUCUGAAGUGUUCGUGUGCUUCGACAGGAGGCUCACAACAGGC
modifications: 2'-F pyrimidines
B17: FC9 (ssRNA)
RNA: GGGAGAUAAGAAUAAACGCUCAAGCAAUCUCGGACUAGACCAACGACCUUCGUUUGACGCUCAUUCGACAGGAGGCUCACAACAGGC
modifications: 2'-F pyrimidines
B18: FCN59 (ssRNA)
RNA: GGGAGAUAAGAAUAAACGCUCAAAUGAUGCUCCUGAAGUAAUCACCAGGACAUCCUCGGCAUUUCGACAGGAGGCUCACAACAGGC
modifications: 2'-F pyrimidines
B19: FC69 (ssRNA)
RNA: GGGAGAUAAGAAUAAACGCUCAAACAAAUGUGCGCCCUUGGACGAAGUUAACUCGGACGGUUCUUCGACAGGAGGCUCACAACAGGC
modifications: 2'-F pyrimidines
B20: FCN48 (ssRNA)
RNA: B4 RNA with C38G
modifications: 2'-F pyrimidines
B21: FCN31 (ssRNA)
RNA: GGGAGAUAAGAAUAAACGCUCAAUCUGUUGGUUCAAAGACUUGCUAAGGGGUCGAAGCACCCUUUCGACAGGAGGCUCACAACAGGC
modifications: 2'-F pyrimidines
B22: FCN24 (ssRNA)
RNA: GGGAGAUAAGAAUAAACGCUCAAAUGAGUAGACCGAGGAAGCACCCGGCUCUCAAAUGAGUGAUUCGACAGGAGGCUCACAACAGGC
modifications: 2'-F pyrimidines
B23: FCN64 (ssRNA)
RNA: B22 RNA with G60C
modifications: 2'-F pyrimidines
B24: FCN50 (ssRNA)
RNA: B14 RNA with A35G
modifications: 2'-F pyrimidines
B25: FCN36 (ssRNA)
RNA: GGGAGAUAAGAAUAAACGCUCAAAGCAGAUGGUGCUGAGGUAUCAUGAAGACGCUGACGCUUAUUCGACAGGAGGCUCACAACAGGC
modifications: 2'-F pyrimidines
B26: FC53 (ssRNA)
RNA: GGGAGAUAAGAAUAAACGCUCAAGCGGGGAGCUCCUCGAGAAACUGAGUUCAACUUCCCAGGUUUCGACAGGAGGCUCACAACAGGC
modifications: 2'-F pyrimidines
B27: FCN26 (ssRNA)
RNA: GGGAGAUAAGAAUAAACGCUCAAUCCAAGGACCAAACGGGUGUUCGGCAGUGGACUUUAGCAAUUCGACAGGAGGCUCACAACAGGC
modifications: 2'-F pyrimidines
B28: FCN28 (ssRNA)
RNA: GGGAGAUAAGAAUAAACGCUCAAUGGGCUACAUGUGAGUACACCAGCGUGAGAGUUCUUAGGUUCGACAGGAGGCUCACAACAGGC
modifications: 2'-F pyrimidines
B29: FCN65 (ssRNA)
RNA: GGGAGAUAAGAAUAAACGCUCAAAGCGCUAGAUGGACGAGAGACUUUUAAGUAGCAAGCGGUAUUCGACAGGAGGCUCACAACAGGC
modifications: 2'-F pyrimidines
B30: FCN29 (ssRNA)
RNA: GGGAGAUAAGAAUAAACGCUCAACUGUGCAGUAACUGCGGAUGAGACCAACCGGAUGGCUCAACUUCGACAGGAGGCUCACAACAGGC
modifications: 2'-F pyrimidines
B31: FC14 (ssRNA)
RNA: GGGAGAUAAGAAUAAACGCUCAAGUGUUGGAGCUCUUGAUUGGAAAAGUAGAACAAAUCGAAAUUCGACAGGAGGCUCACAACAGGC
modifications: 2'-F pyrimidines
B32: FC74 (ssRNA)
RNA: B31 RNA with A53G
modifications: 2'-F pyrimidines
B33: FC70 (ssRNA)
RNA: B31 RNA with A53G, U58A
modifications: 2'-F pyrimidines
B34: FC30 (ssRNA)
RNA: B31 RNA with G48U, A53G
modifications: 2'-F pyrimidines
B35: FC10 (ssRNA)
RNA: GGGAGAUAAGAAUAAACGCUCAACAGACUCAGAGCGCCGUGAGCUUCUGAAGCAAUCGCAGGUUUCGACAGGAGGCUCACAACAGGC
modifications: 2'-F pyrimidines
B36: FCN61 (ssRNA)
RNA: B17 RNA with U36G, C41U, C62U
modifications: 2'-F pyrimidines
B37: FCN57 (ssRNA)
RNA: B17 RNA with G24A, C41U, C62U
modifications: 2'-F pyrimidines

Substitutions are numbered along the chain they refer to.

Sequence of Fibrin (human plasma clot) (P02671 other isoform, or with tags, fused parts or gaps, chain 1 of 3): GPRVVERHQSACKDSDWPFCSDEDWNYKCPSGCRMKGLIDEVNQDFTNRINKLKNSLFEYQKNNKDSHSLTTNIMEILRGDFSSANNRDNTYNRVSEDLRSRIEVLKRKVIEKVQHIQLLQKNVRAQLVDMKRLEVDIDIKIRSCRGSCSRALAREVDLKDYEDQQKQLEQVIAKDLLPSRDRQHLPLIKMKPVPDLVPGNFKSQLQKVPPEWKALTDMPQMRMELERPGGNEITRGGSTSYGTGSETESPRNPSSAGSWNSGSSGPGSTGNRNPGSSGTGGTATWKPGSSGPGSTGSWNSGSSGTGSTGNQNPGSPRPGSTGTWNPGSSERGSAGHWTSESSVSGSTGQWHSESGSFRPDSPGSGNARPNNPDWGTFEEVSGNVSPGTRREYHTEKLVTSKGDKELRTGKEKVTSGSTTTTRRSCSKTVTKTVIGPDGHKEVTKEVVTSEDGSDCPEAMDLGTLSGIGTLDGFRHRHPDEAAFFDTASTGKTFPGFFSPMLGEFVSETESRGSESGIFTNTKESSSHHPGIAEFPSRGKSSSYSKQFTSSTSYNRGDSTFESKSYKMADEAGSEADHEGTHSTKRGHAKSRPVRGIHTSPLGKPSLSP
Sequence of Fibrin (human plasma clot) (P02675 45-491, chain 2 of 3): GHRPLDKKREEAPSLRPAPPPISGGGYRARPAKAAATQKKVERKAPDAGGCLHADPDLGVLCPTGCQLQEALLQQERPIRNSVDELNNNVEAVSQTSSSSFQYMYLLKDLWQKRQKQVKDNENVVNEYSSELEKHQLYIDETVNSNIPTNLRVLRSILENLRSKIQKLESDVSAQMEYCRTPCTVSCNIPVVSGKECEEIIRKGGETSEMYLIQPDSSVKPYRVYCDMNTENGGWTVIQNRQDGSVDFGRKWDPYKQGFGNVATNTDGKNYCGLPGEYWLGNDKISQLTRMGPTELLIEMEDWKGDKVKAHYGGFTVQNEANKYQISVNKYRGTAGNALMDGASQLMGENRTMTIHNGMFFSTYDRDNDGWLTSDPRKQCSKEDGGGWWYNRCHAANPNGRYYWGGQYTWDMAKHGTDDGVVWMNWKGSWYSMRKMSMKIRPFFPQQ
Sequence of Fibrin (human plasma clot) (P02679 other isoform, or with tags, fused parts or gaps, chain 3 of 3): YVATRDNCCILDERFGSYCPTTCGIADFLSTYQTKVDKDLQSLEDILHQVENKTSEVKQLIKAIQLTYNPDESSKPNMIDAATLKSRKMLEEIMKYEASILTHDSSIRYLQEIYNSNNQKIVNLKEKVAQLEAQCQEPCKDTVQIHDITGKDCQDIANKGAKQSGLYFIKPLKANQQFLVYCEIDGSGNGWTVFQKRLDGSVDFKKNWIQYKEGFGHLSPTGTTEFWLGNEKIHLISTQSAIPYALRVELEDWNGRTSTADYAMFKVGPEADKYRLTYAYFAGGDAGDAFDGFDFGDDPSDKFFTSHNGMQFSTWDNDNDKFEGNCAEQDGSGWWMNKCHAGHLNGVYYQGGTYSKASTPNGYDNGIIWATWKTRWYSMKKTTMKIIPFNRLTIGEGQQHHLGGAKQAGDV

For one data set, the target named is T1, Fibrinogen (Homo sapiens, UniProt P02671-2;P02675;P02679-2 P02671-2:20-644,P02675:31-491,P02679-2:27-437). As to the kind of experiment: filter; low class; printed l mM, probably uM. The settings on record: chain copies: 2.
T1 sequence (P02671 other isoform, or with tags, fused parts or gaps, chain 1 of 3): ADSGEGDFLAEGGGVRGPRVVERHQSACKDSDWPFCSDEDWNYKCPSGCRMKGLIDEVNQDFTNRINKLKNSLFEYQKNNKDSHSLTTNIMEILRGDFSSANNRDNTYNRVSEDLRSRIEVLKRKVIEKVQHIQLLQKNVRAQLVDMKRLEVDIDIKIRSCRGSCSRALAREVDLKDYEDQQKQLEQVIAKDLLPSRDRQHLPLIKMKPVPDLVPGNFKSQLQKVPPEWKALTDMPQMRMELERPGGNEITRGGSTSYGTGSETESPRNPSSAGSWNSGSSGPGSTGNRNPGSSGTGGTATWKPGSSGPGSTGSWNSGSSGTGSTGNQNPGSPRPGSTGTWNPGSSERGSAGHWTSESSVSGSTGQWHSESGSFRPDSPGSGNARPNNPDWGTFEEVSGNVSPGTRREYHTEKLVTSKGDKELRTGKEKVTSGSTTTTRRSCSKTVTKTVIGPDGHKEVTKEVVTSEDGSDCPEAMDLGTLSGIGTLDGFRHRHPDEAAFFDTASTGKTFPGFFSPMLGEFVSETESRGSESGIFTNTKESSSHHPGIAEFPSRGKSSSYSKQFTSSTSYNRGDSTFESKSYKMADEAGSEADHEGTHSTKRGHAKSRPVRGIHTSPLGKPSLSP
T1 sequence (P02675 31-491, chain 2 of 3): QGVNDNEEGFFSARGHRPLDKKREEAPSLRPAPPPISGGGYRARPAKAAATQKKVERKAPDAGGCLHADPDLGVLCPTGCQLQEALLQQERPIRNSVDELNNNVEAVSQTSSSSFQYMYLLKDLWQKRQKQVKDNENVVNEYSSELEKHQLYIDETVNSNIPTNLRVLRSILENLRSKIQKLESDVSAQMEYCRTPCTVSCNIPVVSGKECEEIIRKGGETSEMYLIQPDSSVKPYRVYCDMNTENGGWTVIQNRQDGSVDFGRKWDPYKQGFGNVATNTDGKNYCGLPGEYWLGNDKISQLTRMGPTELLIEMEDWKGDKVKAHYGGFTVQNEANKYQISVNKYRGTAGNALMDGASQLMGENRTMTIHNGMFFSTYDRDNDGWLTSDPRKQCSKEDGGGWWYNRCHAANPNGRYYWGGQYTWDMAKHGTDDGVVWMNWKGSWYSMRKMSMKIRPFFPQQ
T1 sequence (P02679 other isoform, or with tags, fused parts or gaps, chain 3 of 3): as the sequence (P02679 other isoform, or with tags, fused parts or gaps, chain 3 of 3) above
The Kd is the constant that tells how readily two partners part at equilibrium. Consider B1, for which the Kd is > 1000 nM.
Consider B2, for which the Kd was > 1000 nM.
As for B3, the Kd was > 1000 nM.
For B4, the Kd was > 1000 nM.
B5: the Kd was > 1000 nM.
For B6, the Kd is > 1000 nM.
On the same count and under the same terms, the same measure for B7: > 1000 nM.
Still for that read-out and setting: as for B8, the figure is > 1000 nM; as for B9, > 1000 nM.
On to B10, for which the Kd was > 1000 nM.
For B11, the Kd is > 1000 nM.
Still for that read-out and setting: as for B12, the figure is > 1000 nM.
Still for that read-out and setting: as for B13, the figure is > 1000 nM.
For B14, the Kd is > 1000 nM.
On the same count and under the same terms, as for B15, the figure is > 1000 nM; as for B16, > 1000 nM; as for B17, > 1000 nM.
On the same count and under the same terms, the same measure for B18: > 1000 nM.

A further data set has as its target Fibrin (human plasma clot) (Homo sapiens, UniProt P02671-2;P02675;P02679-2 P02671-2:36-644,P02675:45-491,P02679-2:27-437). As to the kind of experiment: competition; homogenized plasma clot, Scatchard high-affinity component. The note with it: tags: clot from recalcified plasma, complex target; chain copies: 2. Here is the method:
The two best binders in the PE model which had the lowest affinity for fibrinogen were pursued. Both of these clones resided in Motif II. Clone 69 (SEQ ID NO: 55) was analyzed for binding in vitro homogenized clot. By adding a fixed amount of radiolabeled clone 69 (2 nM) to a fixed amount of clot (200 μliters plasma equivalent) with increasing amount of non-radiolabeled ligand, binding could be quantitated. Analyzing data in a Scatchard format yield a two-component curve with high and low affinity binding components. […] These sites were saturable. […] As such it appears that the binding of a specific ligand to clots is specific and stable.
Take B19: the Kd was determined as 14.1 nM.

The target in a further data set is T1, Fibrinogen. Briefly: filter; moderate fibrinogen affinity. The note with it: chain copies: 2.
As to B20, the binding result is “binds”.
In the case of B21, the binding result is “binds”.
B22: the binding result is listed as “binds”.
In the case of B23, the binding result is “binds”.
The same measure, in the same setting: the same measure for B24: “binds”; for B25: “binds”.

Another data set deals with T1, Fibrinogen. Briefly: filter; high class; printed l mM, probably uM. The note with it: chain copies: 2.
In the case of B26, the Kd was < 1000 nM.
On the same count and under the same terms, as for B27, the figure is < 1000 nM.
Regarding B28, the Kd is < 1000 nM.
For B29, the Kd is < 1000 nM.
The same measure, in the same setting: the same measure for B30: < 1000 nM; for B31: < 1000 nM.
For B32, the Kd is < 1000 nM.
Turning to B33, the Kd was < 1000 nM.
Consider B34, for which the Kd is < 1000 nM.
The same measure, in the same setting: the same measure for B35: < 1000 nM.
For B36, the Kd was < 1000 nM.
As to B37, the Kd is < 1000 nM.
